From paper PMC5805342

Target: Plasminogen (human)

In the case of Full-length muPA E73A (enzyme), the KM for plasminogen activation (indirect chromogenic assay with S-2251; plasminogen 24-0 μM, 1 nM muPA, 37°C) is reported as 24.6 µM.
Work on Full-length muPA K72A (enzyme) yielded a KM for plasminogen activation (indirect chromogenic assay with S-2251; plasminogen 24-0 μM, 1 nM muPA, 37°C) of 3.1 µM.
For Full-length muPA N77A (enzyme), the KM for plasminogen activation (indirect chromogenic assay with S-2251; plasminogen 24-0 μM, 1 nM muPA, 37°C) was 5.1 µM.
With Full-length muPA P78A (enzyme) the KM for plasminogen activation (indirect chromogenic assay with S-2251; plasminogen 24-0 μM, 1 nM muPA, 37°C) was 3.9 µM.
With Full-length muPA S74A (enzyme) the KM for plasminogen activation (indirect chromogenic assay with S-2251; plasminogen 24-0 μM, 1 nM muPA, 37°C) was 22 µM.
Full-length muPA Y76A (enzyme) was tested, and the KM for plasminogen activation (indirect chromogenic assay with S-2251; plasminogen 24-0 μM, 1 nM muPA, 37°C) was 5 µM.
For Full-length muPA Y149A (enzyme), the KM for plasminogen activation (indirect chromogenic assay with S-2251; plasminogen 24-0 μM, 1 nM muPA, 37°C) was 12 µM and the kcat for plasminogen activation (indirect chromogenic assay with S-2251; plasminogen 24-0 μM, 1 nM muPA, 37°C) was 0.06 s⁻¹.
For “Full-length murine urokinase-type plasminogen activator (muPA) (from UniProt P06869 21-433) (enzyme)”, the KM for plasminogen activation (indirect chromogenic assay with S-2251; plasminogen 24-0 μM, 1 nM muPA, 37°C) was 9.8 µM.
